# Values of other authors in patent US10227617B2, “Sequestration of carbon dioxide with hydrogen to useful products” (UNIVERSITY OF GEORGIA RESEARCH FOUNDATION, INC., priority 2012, dated 2019).
# B1: Msed_1456: M. sedula 3-hydroxypropionate:CoA ligase, SEQ ID NO:6 (protein, listed as Metallosphaera sedula)
# chain: MFMRYIMVEEQTLKTGSQELEEKADYNMRYYAHLMKLSKEKPAEFWGSLAQDLLDWYEPWKETMRQEDPMTRWFIGGKINASYNAVDRHLNGPRKFKAAVIWESELGERKIVTYQDMFYEVNRWANALRSLGVGKGDRVTIYMPLTPEGIAAMLASARIGAIHSVIFAGFGSQAIADRVEDAKAKVVITADAYPRRGKVVELKKTVDEALNSLGERSPVQHVLVYRRMKTDVNMKEGRDVFFDEVGKYRYVEPERMDSNDPLFILYTSGTTGKPKGIMHSTGGYLTGTAVMLLWSYGLSQENDVLFNTSDIGWIVGHSYITYSPLIMGRTVVIYESAPDYPYPDKWAEIIERYRATTFGTSATALRYFMKYGDEYVKNHDLSSIRIIVTNGEVLNYSPWKWGLEVLGGGKVFMSHQWWQTETGAPNLGYLPGIIYMPMKSGPASGFPLPGNFVEVLDENGNPSAPRVRGYLVMRPPFPPNMMMGMWNDNGERLKKTYFSKFGSLYYPGDFAMVDEDGYIWVLGRADETLKIAAHRIGAGEVESAITSHPSVAEAAVIGVPDSVKGEEVHAFVVLKQGYAPSSELAKDIQSHVRKVMGPIVSPQIHFVDKLPKTRSGKVMRRVIKAVMMGSSAGDLTTIEDEASMDEIKKAVEELKKELKTS
# Settings: reported data, FIG. 4; cited from earlier work
molecule,measurement,value
B1,activity on 3-hydroxybutyrate,> 1%
